Test results: publication PMC9127587, “Antibody recognition of complement factor H reveals a flexible loop involved in atypical hemolytic uremic syndrome pathogenesis” (The Journal of Biological Chemistry, 2022)
Numbering of substitutions follows the chain as printed. Numbers in names are those of the source.

How the values were obtained:
[1] = biological target: CFH18-20 (human complement factor H CCP18-20) with myc tag and His-tag (human) (UniProt P08603); assay: ITC; CFH18-20 in the cell (5-15 uM), VHH4 or mutants in the syringe (50-150 uM), 20 injections; PBS pH 7.4, 25 °C; iTC200
Chain of CFH18-20 (human complement factor H CCP18-20) with myc tag and His-tag (human) (P08603 1046-1231): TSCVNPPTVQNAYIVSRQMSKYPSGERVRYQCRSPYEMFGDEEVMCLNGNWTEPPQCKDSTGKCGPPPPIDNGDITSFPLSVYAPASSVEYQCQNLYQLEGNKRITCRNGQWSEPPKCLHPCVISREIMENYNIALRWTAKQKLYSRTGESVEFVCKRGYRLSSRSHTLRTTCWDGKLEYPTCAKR

[2] = biological target: CFH18-20 W1183A_(CCP20) (human) (UniProt P08603); assay: SPR; CFH18-20 (or W1183A) immobilised on a CM5 chip by amine coupling at around 300 RU; VHH4 or its mutants injected as analyte at 30 uL/min; single-cycle kinetics; PBS pH 7.4, Tween 20 (0.005%), 25 °C; Biacore 8K
Chain of CFH18-20 W1183A_(CCP20) (human) (P08603 1046-1231 W1183A): as the sequence (P08603 1046-1231) above, with W138A counted along it

[3] = biological target: CFH18-20 (human complement factor H CCP18-20) with myc tag and His-tag (human) (UniProt P08603); assay: as above
[4] = biological target: T1, CFH18-20 (human complement factor H CCP18-20) with His-tag only (Homo sapiens, UniProt P08603); assay: crystal structure; complex of CFH18-20 with His-tag and VHH4 mixed at 1:1.2 and purified by SEC; crystals at 20 °C in 200 mM sodium phosphate monobasic, 20% PEG 3350; 2.6 Å; details: both partners purified
T1 construct: complement factor H (CFH), human, domains CCP18-20; Construct for crystallization; Domain CCP18 was not observed in the crystal structure; also called CFH18-20 with His-tag; source: Expi293 cells, transfected, purified from the supernatant (Ni-NTA, SEC); not shown: His-tag, C-terminal, kept
T1 sequence (P08603 1046-1231): as the sequence (P08603 1046-1231) above

[5] = biological target: T2, CFH18-20 (human complement factor H CCP18-20) with myc tag and His-tag (Homo sapiens, UniProt P08603); assay: ITC; CFH18-20 in the cell (5-15 uM), VHH4 or mutants in the syringe (50-150 uM), 20 injections; PBS pH 7.4, 25 °C; iTC200; details: both partners purified
T2 construct: complement factor H (CFH), human, domains CCP18-20; Construct for SPR and ITC; PDB 7WKI holds the His-only form of the same protein; also called CFH18-20 WT; CFH CCP18-20; source: Expi293 cells, transfected, purified from the supernatant (Ni-NTA, SEC); not shown: myc, C-terminal, kept; His-tag, C-terminal, kept
T2 sequence (P08603 1046-1231): as above

[6] = biological target: T2, CFH18-20 (human complement factor H …); assay: SPR; CFH18-20 (or W1183A) immobilised on a CM5 chip by amine coupling at around 300 RU; VHH4 or its mutants injected as analyte at 30 uL/min; single-cycle kinetics; PBS pH 7.4, Tween 20 (0.005%), 25 °C; Biacore 8K; details: both partners purified

B1: VHH4 (VHH)
VHH: QVQLVESGGGLVQAGGSLRLSCAASGLTVDDYAIGWFRQAPGKEREGVSCISSSNGSTYYADSVKGRFTISSDNAKNTAYLQMNSLKPEDTAVYYCAAAVSPNLECGTGPFGIYASYYGMDYWGQGTQVTVSS
notes: alpaca VHH selected by phage display; CDR3 is Ala99-Tyr122; Disulfide bond between Cys50 and Cys106; also called VHH4 WT; WT; source: E. coli BL21 (DE3), purified (Ni-NTA, SEC)
Work on B1 yielded a Kd [1] of 2.01 nM, a dH [1] of -28.9 kcal/mol and a stoichiometry N [1] of 0.895. The Kd [2] was > 1000 nM, the Kd [3] was 0.00171 nM and the koff [3] was 5.53e-08 s⁻¹. The kon [3] was 31400 M⁻¹ s⁻¹ and the binding result [4] was “binds”.

B2: VHH4 P110A (VHH)
VHH: B1 VHH with P110A
Binder B2 has a Kd [1] of 5.03 nM, a dH [1] of -29.8 kcal/mol and a stoichiometry N [1] of 0.838. For the same binder, the Kd [3] was 0.504 nM, the koff [3] was 7.11e-06 s⁻¹ and the kon [3] was 9210 M⁻¹ s⁻¹.

B3: VHH4 Y95A (VHH)
VHH: B1 VHH with Y95A
Work on B3 yielded a Kd [1] of 2.27 nM, a dH [1] of -28.2 kcal/mol and a stoichiometry N [1] of 0.842. The Kd [3] was 0.166 nM, the koff [3] was 4.42e-06 s⁻¹ and the kon [3] was 30400 M⁻¹ s⁻¹.

B4: VHH4 Y117A (VHH)
VHH: B1 VHH with Y117A
For B4, the Kd [1] was 5.87 nM, the dH [1] was -28.1 kcal/mol and the stoichiometry N [1] was 0.933. For the same binder, the Kd [3] was 0.498 nM, the koff [3] was 5.39e-07 s⁻¹ and the kon [3] was 11300 M⁻¹ s⁻¹.

B5: VHH4 Y118A (VHH)
VHH: B1 VHH with Y118A
notes: as the VHH chain of m4 (PDB 7WKI) with the stated change; also called Y118A_(VHH4); Tyr118A_(VHH4); source: E. coli BL21 (DE3), purified (Ni-NTA, SEC), as the wildtype
With B5 the Kd [5] was 410 ± 26.4 nM, the dH [5] was -19.4 ± 0.33 kcal/mol and the “stoichiometry N” value [5] was 0.947 ± 0.041. For the same binder, the Kd [6] was 2200 ± 732 nM, the koff [6] was 0.0298 s⁻¹ and the kon [6] was 15800 M⁻¹ s⁻¹.

B6: VHH4 L104A (VHH)
VHH: B1 VHH with L104A
notes: as the VHH chain of m4 (PDB 7WKI) with the stated change; also called L104A_(VHH4); Leu104A_(VHH4); source: E. coli BL21 (DE3), purified (Ni-NTA, SEC), as the wildtype
B6 was tested, and the Kd [5] was 166 ± 40.3 nM, the dH [5] was -24.5 ± 0.99 kcal/mol and the “stoichiometry N” value [5] was 0.947 ± 0.061. For the same binder, the Kd [6] was 44.1 ± 2.3 nM, the koff [6] was 0.000489 s⁻¹ and the kon [6] was 11200 M⁻¹ s⁻¹.

B7: VHH4 T108A (VHH)
VHH: B1 VHH with T108A
B7 showed a Kd [1] of 8.79 nM, a dH [1] of -27.2 kcal/mol and a stoichiometry N [1] of 0.924. It also gave a Kd [3] of 0.146 nM, a koff [3] of 2.57e-06 s⁻¹ and a kon [3] of 17900 M⁻¹ s⁻¹.

B8: VHH4 G119A (VHH)
VHH: B1 VHH with G119A
Work on B8 yielded a Kd [1] of 7.26 nM, a dH [1] of -19.4 kcal/mol and a stoichiometry N [1] of 0.865. It also gave a Kd [3] of 9.18 nM, a koff [3] of 0.000611 s⁻¹ and a kon [3] of 62800 M⁻¹ s⁻¹.

B9: VHH4 P102A (VHH)
VHH: B1 VHH with P102A
Binder B9 has a Kd [1] of 4.11 nM, a dH [1] of -29.6 kcal/mol and a stoichiometry N [1] of 0.961. It also gave a Kd [3] of 0.219 nM, a koff [3] of 4.07e-06 s⁻¹ and a kon [3] of 23700 M⁻¹ s⁻¹.

B10: VHH4 D121A (VHH)
VHH: B1 VHH with D121A
notes: as the VHH chain of m4 (PDB 7WKI) with the stated change; also called D121A_(VHH4); Asp121A_(VHH4); source: E. coli BL21 (DE3), purified (Ni-NTA, SEC), as the wildtype
With B10 the Kd [5] was 361 ± 64.9 nM, the dH [5] was -29.5 ± 1.14 kcal/mol and the “stoichiometry N” value [5] was 1 ± 0.019. For the same binder, the Kd [6] was 127 ± 30 nM, the koff [6] was 0.000545 s⁻¹ and the kon [6] was 4340 M⁻¹ s⁻¹.

B11: VHH4 W123A (VHH)
VHH: B1 VHH with W123A
For B11, the Kd [1] was 3.92 nM, the dH [1] was -20.9 kcal/mol and the stoichiometry N [1] was 0.866. The Kd [3] was 5.05 nM, the koff [3] was 0.000159 s⁻¹ and the kon [3] was 31200 M⁻¹ s⁻¹.
